T1: human OX40 (TNFRSF4, CD134) on cells (human, UniProt P43489 29-277)
T1 sequence: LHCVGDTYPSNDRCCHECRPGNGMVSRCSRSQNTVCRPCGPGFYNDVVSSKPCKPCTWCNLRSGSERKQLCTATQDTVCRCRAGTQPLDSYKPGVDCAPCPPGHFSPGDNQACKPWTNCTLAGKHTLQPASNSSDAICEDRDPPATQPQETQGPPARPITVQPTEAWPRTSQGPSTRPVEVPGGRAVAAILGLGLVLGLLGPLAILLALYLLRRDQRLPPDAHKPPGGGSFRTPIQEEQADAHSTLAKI

T2: Human CD32a (167 Arg), Sino Biological 10374-H08H (human, UniProt P12318 34-218)
T2 construct: also called FcγRIIa167R
T2 sequence (looked up): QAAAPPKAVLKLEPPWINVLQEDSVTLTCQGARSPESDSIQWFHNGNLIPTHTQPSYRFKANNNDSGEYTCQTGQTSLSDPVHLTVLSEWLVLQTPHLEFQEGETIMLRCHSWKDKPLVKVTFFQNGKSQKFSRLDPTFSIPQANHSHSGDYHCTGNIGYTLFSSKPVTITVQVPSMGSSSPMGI

T3: Human CD32a (167 His), Sino Biological 10374-H08H1 (human, UniProt P12318 34-218)
T3 construct: also called FcγRIIa167H
T3 sequence (looked up): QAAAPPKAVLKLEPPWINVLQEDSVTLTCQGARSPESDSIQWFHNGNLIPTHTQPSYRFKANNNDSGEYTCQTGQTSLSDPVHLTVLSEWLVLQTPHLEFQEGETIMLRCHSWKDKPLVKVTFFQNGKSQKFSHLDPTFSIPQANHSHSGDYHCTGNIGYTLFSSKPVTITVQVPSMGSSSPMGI

T4: Human CD32b, Sino Biological 10259-H08H (human, UniProt P31994 43-217)
T4 construct: also called FcγRIIb
T4 sequence (looked up): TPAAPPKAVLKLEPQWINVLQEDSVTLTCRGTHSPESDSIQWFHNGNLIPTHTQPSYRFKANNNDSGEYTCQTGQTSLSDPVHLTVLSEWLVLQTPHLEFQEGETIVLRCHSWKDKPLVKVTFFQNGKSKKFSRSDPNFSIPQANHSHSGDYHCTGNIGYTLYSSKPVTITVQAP

B1: MAB1 IgG1 (antibody)
heavy: not shown
light: EIVLTQSPATLSLSPGERATLSCRASSSVSYMHWYQQKPGQAPRPWIYATSNRATGIPARFSGSGSGTDYTLTISSLEPEDFAVYYCQQFGAWPWTFGQGTKVEIKRTVAAPSVFIFPPSDEQLKSGTASVVCLLNNFYPREAKVQWKVDNALQSGNSQESVTEQDSKDSTYSLSSTLTLSKADYEKHKVYACEVTHQGLSSPVTKSFNRGEC
notes: Human IgG1, kappa
B2: GBR 830 (telazorlimab) (antibody, human IgG1, kappa)
heavy: not shown
light: EIVLTQSPATLSLSPGERATLSCRASSSVSYMHWYQQKPGQAPRPWIYATSNRATGIPARFSGSGSGTDYTLTISSLEPEDFAVYYCQQWSSNPWTFGQGTKVEIKRTVAAPSVFIFPPSDEQLKSGTASVVCLLNNFYPREAKVQWKVDNALQSGNSQESVTEQDSKDSTYSLSSTLTLSKADYEKHKVYACEVTHQGLSSPVTKSFNRGEC
notes: IgG1; also called Antibody 830; ISB830
B3: MAB10 (antibody, human IgG1, kappa)
heavy: QVTLKESGPALVKPTQTLTLTCSFSGFSLSTSGMGVGWIRQPPGKALEWIAHIWWDDDKYYNTALKTRLTISKDTSKNQVVLTMTNMDPVDTATYYCARIDWDGFAYWGQGTLVTVSSASTKGPSVFPLAPSSKSTSGGTAALGCLVKDYFPEPVTVSWNSGALTSGVHTFPAVLQSSGLYSLSSVVTVPSSSLGTQTYICNVNHKPSNTKVDKKVEPKSCDKTHTCPPCPAPELLGGPSVFLFPPKPKDTLYITREPEVTCVVVDVSHEDPEVKFNWYVDGVEVHNAKTKPREEQYNSTYRVVSVLTVLHQDWLNGKEYKCKVSNKALPAPIEKTISKAKGQPREPQVYTLPPSRDELTKNQVSLTCLVKGFYPSDIAVEWESNGQPENNYKTTPPVLDSDGSFFLYSKLTVDKSRWQQGNVFSCSVMHEALHNHYTQKSLSLSPGK
light: EIVLTQSPATLSLSPGERATLSCRASSSVSYMHWYQQKPGQAPRPWIYATSNRATGIPARFSGSGSGTDYTLTISSLEPEDFAVYYCQQFGAWPWTFGQGTKVEIKRTVAAPSVFIFPPSDEQLKSGTASVVCLLNNFYPREAKVQWKVDNALQSGNSQESVTEQDSKDSTYSLSSTLTLSKADYEKHKVYACEVTHQGLSSPVTKSFNRGEC
notes: MAB1 with M252Y, S254T and T256E (EU numbering) in the IgG1 Fc; also called MAB1 Heavy Chain + YTE

Tests used:
[1] = target: T1, human OX40 (TNFRSF4, CD134) on cells; experiment: cell-based or functional assay
[2] = target: T1, human OX40 (TNFRSF4, CD134) on cells; experiment: flow cytometry on Jurkat-NF-κB-OX40 cells, detection with PE anti-human IgG Fc, occupancy in % of the saturating dose; in the presence of 0.07 µg/ml OX40L; time point not stated on the sheet
[3] = target: T1, human OX40 (TNFRSF4, CD134) on cells; experiment: cell-based or functional assay; remark: listed apart in the source
[4] = target: Human CD64 (FcγRI), Sino Biological 10256-H08H (human, UniProt P12314 16-288); experiment: SPR Biacore 8K+, receptor captured by anti-His, antibody as analyte
Procedure: (§1) Measurements were performed on a Biacore 8K+ instrument (Cytiva Life Sciences) using the Biacore 8K+ Control Software and analyzed with the Biacore Insight Evaluation Software (v3.0). […] After each binding event, baseline levels were restored using a regeneration solution on both flow-paths. HBS-EP+pH 7.4 solution were used as running buffer. Data was analyzed using the MCK evaluation method of the Biacore Insight Evaluation Software and kinetic parameters were determined using the 1:1 binding and steady-state affinity methods.
(§2) Each measurement is the mean of three identical replicate conditions.

[5] = target: T2, Human CD32a (167 Arg), Sino Biological …; experiment: as above
Procedure: as §1, §2

[6] = target: T5, Human CD16a (176F), Sino Biological 10389-H08H (human, UniProt P08637 17-208); experiment: as above
T5 construct: also called FcγRIIIa176F
Procedure: as §1, §2

[7] = target: T6, Human CD16b (NA2 allotype), Sino Biological 11046-H08H (human, UniProt O75015 17-200); experiment: as above
T6 construct: also called FcγRIIIb
Procedure: as §1, §2

[8] = target: T7, Human CD16a (F176V), Sino Biological 10389-H08H1 (human, UniProt P08637 17-208); experiment: as above
T7 construct: also called FcγRIIIa176V
Procedure: as §1, §2

[9] = target: T3, Human CD32a (167 His), Sino Biological …; experiment: as above
Procedure: as §1, §2

[10] = target: T4, Human CD32b, Sino Biological 10259-H08H; experiment: as above
Procedure: as §1, §2

[11] = target: T1, human OX40 (TNFRSF4, CD134) on cells; experiment: cell-based or functional assay; remark: listed apart in the source
[12] = target: T1, human OX40 (TNFRSF4, CD134) on cells; experiment: flow cytometry on Jurkat-NF-κB-OX40 cells, detection with PE anti-human IgG Fc, occupancy in % of the saturating dose; in the presence of 0.3 µg/ml OX40L; time point not stated on the sheet
[13] = target: T1, human OX40 (TNFRSF4, CD134) on cells; experiment: cell-based or functional assay; remark: listed apart in the source
[14] = target: T1, human OX40 (TNFRSF4, CD134) on cells; experiment: flow cytometry on Jurkat-NF-κB-OX40 cells, detection with PE anti-human IgG Fc, occupancy in % of the saturating dose; no OX40L; time point (0 h or 5 h) not stated on the sheet

T5 sequence (P08637 17-208 limits assumed): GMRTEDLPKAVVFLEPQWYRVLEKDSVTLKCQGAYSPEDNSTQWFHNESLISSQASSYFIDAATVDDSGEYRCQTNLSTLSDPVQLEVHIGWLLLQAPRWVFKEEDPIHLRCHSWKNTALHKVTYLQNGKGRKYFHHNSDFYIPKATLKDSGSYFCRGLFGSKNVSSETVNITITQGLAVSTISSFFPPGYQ
Chain of Human CD64 (FcγRI), Sino Biological 10256-H08H (P12314 16-288 limits assumed): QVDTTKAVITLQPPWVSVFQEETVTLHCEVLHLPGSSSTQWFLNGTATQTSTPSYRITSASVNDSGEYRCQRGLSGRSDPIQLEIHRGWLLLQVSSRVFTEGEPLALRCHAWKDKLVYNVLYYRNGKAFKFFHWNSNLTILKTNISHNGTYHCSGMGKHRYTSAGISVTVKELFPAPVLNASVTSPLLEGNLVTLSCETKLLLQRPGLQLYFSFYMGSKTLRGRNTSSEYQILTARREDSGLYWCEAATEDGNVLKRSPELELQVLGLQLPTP
T7 sequence (P08637 17-208 F176V limits assumed): as the sequence (P08637 17-208 limits assumed) above, with F160V counted along it
T6 sequence (O75015 17-200 N65S limits assumed): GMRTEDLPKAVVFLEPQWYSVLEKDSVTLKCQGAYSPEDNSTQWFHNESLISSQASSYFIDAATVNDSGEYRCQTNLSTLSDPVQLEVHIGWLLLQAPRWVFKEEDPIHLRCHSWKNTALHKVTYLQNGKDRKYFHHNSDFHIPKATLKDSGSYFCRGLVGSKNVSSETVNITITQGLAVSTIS

Binder | Maximum killing (%), ADCC, activated T cells [1] [%] | EC50 (read off the curve) [2] [nM] | ADCC EC50, regulatory T cells (LDH release) [3] [nM] | Kd [4] [nM] | Kd [6] [nM] | Kd [7] [nM] | Kd [8] [nM] | Kd [9] [nM] | EC50, inhibition of IFNγ release [11] [nM] | EC50, inhibition of IL-2 release [11] [nM] | EC50, inhibition of IL-4 release [11] [nM] | EC50, inhibition of IL-5 release [11] [nM] | EC50, inhibition of IL-8 release [11] [nM] | EC50, inhibition of IL-10 release [11] [nM] | EC50, inhibition of IL-13 release [11] [nM] | EC50, inhibition of IL-21 release [11] [nM] | EC50, inhibition of IL-31 release [11] [nM] | EC50, inhibition of TNF-α release [11] [nM] | EC50 (read off the curve) [12] [nM] | ADCC EC50, activated T cells (LDH release) [13] [nM] | also measured
B1 | 45.6 | ~0.2 | 0.28 | 5.4 | 334 | 3630 | 297 | 4030 | 14.6 | 2.36 | 2.83 | 21.3 | 9.19 | 28 | 6.2 | 2.56 | 2.51 | 4.1 | ~0.2 | 0.27 | Fold diff to MAB10, maximum ADCC, activated T cells [1]: 1.31 fold; Fold diff to MAB10, ADCC EC50, regulatory T cells [3]: 8.25 fold; Kd [5]: 6140 nM; Kd [10]: 11600 nM; EC50, inhibition of IL-17a release [11]: 24.4 nM; EC50, inhibition of IL-22 release [11]: 9.19 nM; Fold diff to GBR830, IFNγ [11]: 4.6 fold; Fold diff to GBR830, IL-2 [11]: 3.4 fold; Fold diff to GBR830, IL-4 [11]: 15.8 fold; Fold diff to GBR830, IL-5 [11]: 3 fold; Fold diff to GBR830, IL-8 [11]: 6.3 fold; Fold diff to GBR830, IL-10 [11]: 2.4 fold; Fold diff to GBR830, IL-13 [11]: 11.2 fold; Fold diff to GBR830, IL-21 [11]: 18.5 fold; Fold diff to GBR830, IL-31 [11]: 11.9 fold; Fold diff to GBR830, TNF-α [11]: 10.6 fold; Fold diff to MAB10, ADCC EC50, activated T cells [13]: 0.37 fold; EC50 (read off the curve) [14]: ~0.2 nM
B2 | 39.6 | ~0.5 | 2.25 | 6.2 | 365 | 3220 | 330 | 3410 | 66.7 | 7.92 | 44.8 | 63.6 | 58.2 | 66.8 | 69.6 | 47.3 | 29.9 | 43.3 | ~0.7 | 0.13 | Fold diff to MAB10, maximum ADCC, activated T cells [1]: 1.14 fold; Fold diff to MAB10, ADCC EC50, regulatory T cells [3]: 1.03 fold; Kd [5]: 4690 nM; Kd [10]: 7260 nM; Fold diff to MAB10, ADCC EC50, activated T cells [13]: 0.77 fold; EC50 (read off the curve) [14]: ~0.4 nM
B3 | 34.9 | ~0.3 | 2.31 | 8.7 | 992 | 15600 | 816 | 12700 | 11.8 | 2.63 | 2.88 | 16.4 | 9.55 | 34.1 | 5.3 | 2.75 | 2 | 4.2 | ~0.4 | 0.1 | binding result [5]: no binding (tested: 5,000 nM highest antibody concentration); binding result [10]: no binding (tested: 5,000 nM highest antibody concentration); EC50, inhibition of IL-17a release [11]: 23.5 nM; EC50, inhibition of IL-22 release [11]: 7.03 nM; Fold diff to GBR830, IFNγ [11]: 5.7 fold; Fold diff to GBR830, IL-2 [11]: 3 fold; Fold diff to GBR830, IL-4 [11]: 15.5 fold; Fold diff to GBR830, IL-5 [11]: 3.9 fold; Fold diff to GBR830, IL-8 [11]: 6.1 fold; Fold diff to GBR830, IL-10 [11]: 2 fold; Fold diff to GBR830, IL-13 [11]: 13.1 fold; Fold diff to GBR830, IL-21 [11]: 17.2 fold; Fold diff to GBR830, IL-31 [11]: 14.9 fold; Fold diff to GBR830, TNF-α [11]: 10.3 fold; EC50 (read off the curve) [14]: ~0.3 nM

— patent US20250353921A1 (ASTRIA THERAPEUTICS, published 2025)
